Laboratory results: paper PMC8575264
Like-named read-outs stand apart in the source and are kept apart here.

Assays:
Assay in all cases: fluorescence anisotropy
[1] = biological target: Zn(II)-CPSF30-F2F3 (UniProt O19137)
[2] = biological target: T1, holo-CPSF30-FL (Bos taurus, UniProt O19137 1-243)
[3] = biological target: T2, holo-CPSF30-5F (UniProt O19137 35-169)
[4] = biological target: T3, Zn(II)-CPSF30-ZK (UniProt O19137)
T3 chain: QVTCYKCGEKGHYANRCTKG

[5] = biological target: T1, holo-CPSF30-FL; remark: listed apart in the source
[6] = biological target: T1, holo-CPSF30-FL; remark: listed apart in the source
[7] = biological target: T2, holo-CPSF30-5F; remark: listed apart in the source
[8] = biological target: T1, holo-CPSF30-FL; remark: listed apart in the source

## CACUUUAAUAAUAAAAAUCAUGCU (ssRNA) [α-syn24]
[1]
  binding result: no binding
[2]
  apparent K (half saturation): 110 nM

## UUUUUUUUUUUUUUUUUUUUUUUU (ssRNA) [PolyU24]
[3]
  binding result: no binding
[4]
  binding result: no binding

## AAUAAUAAU (ssRNA) [AAU9]
[1]
  binding result: no binding

## AAUAAUAAUAAUAAUAAUAAUAAU (ssRNA) [AAU24]
[1]
  binding result: no binding

## UUUAUUUAUUU (ssRNA) [ARE11]
[1]
  binding result: no binding
[4]
  binding result: no binding

## CACUUUAAUCCUCCAAAUCAUGCU (ssRNA) [ΔA1,2,4,5]
[5]
  apparent K (half saturation): 275 nM
[3]
  binding result: no binding

## CACUUUAAUCCCCCCAAUCAUGCU (ssRNA) [PolyC24]
[6]
  binding result: no binding

## UCUCACUUUAAUAAUAAAAAUCAUGCUUAU (ssRNA) [α-syn30]
[1]
  binding result: no binding
[7]
  apparent K (half saturation): 178 nM
[8]
  apparent K (half saturation): 110 nM

## AAUAAUAAUAAU (ssRNA) [AAU12]
[1]
  binding result: no binding
